{"source": "paper PMC4820125", "about": "“Aptamer-Assisted Detection of the Altered Expression of Estrogen Receptor Alpha in Human Breast Cancer”", "binders": {"B1": {"name": "ERaptD4 (ssDNA)", "DNA": "ATACCAGCTTATTCAATTCGTTGCATTTAGGTGCATTACGGGGGTTATCCGCTCTCTCAGATAGTATGTGCAATCA"}, "B2": {"name": "ERaptD3 (ssDNA)", "DNA": "ATACCAGCTTATTCAATTGGGGATAACGTCGTCACGTCGTGTCATCATTGGTTCAGTCAGATAGTATGTGCAATCA"}, "B3": {"name": "ERaptD8 (ssDNA)", "DNA": "ATACCAGCTTATTCAATTCGAGTAACGCTGTCTCTTCCGAATCGGGGGAAGGCGGAGGAGATAGTATGTGCAATCA"}}, "key": {"[1]": {"molecular_target": "ERα full length (UniProt P03372 1-595)", "sequence (P03372 whole entry)": "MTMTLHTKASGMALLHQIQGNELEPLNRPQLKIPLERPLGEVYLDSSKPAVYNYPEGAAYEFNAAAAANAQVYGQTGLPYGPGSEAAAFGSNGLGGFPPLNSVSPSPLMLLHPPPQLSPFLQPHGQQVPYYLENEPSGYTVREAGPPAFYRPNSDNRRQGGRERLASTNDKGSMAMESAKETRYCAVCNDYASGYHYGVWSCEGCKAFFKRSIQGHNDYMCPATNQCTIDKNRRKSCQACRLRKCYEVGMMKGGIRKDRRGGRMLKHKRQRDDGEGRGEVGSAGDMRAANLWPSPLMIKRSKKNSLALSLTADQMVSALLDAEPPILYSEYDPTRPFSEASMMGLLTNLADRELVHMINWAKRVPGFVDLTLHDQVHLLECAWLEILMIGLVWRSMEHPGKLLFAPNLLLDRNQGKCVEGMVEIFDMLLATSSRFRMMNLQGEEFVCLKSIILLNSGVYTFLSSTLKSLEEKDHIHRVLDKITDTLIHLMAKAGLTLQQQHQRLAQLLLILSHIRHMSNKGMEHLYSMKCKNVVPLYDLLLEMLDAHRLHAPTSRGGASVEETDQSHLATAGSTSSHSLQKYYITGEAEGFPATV", "assay": "aptamer ELISA; 500 nM aptamer; ITC: 10 mM Tris-HCl pH 8.0, 25 C; aptamer binding buffer (SELEX): 20 mM Tris-HCl pH 7.6, 120 mM NaCl, 5 mM KCl, 1 mM MgCl2, 1 mM CaCl2, RT (ca. 27 C); ELISA: 2", "settings": "protein: commercial, chain copies: 2"}, "[2]": {"molecular_target": "PR-DBD (human (cDNA from MCF-7), UniProt P06401 567-639)", "sequence (P06401 567-639)": "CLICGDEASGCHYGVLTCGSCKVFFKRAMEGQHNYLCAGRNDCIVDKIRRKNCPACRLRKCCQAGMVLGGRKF", "assay": "aptamer ELISA; negligible binding; ITC: 10 mM Tris-HCl pH 8.0, 25 C; aptamer binding buffer (SELEX): 20 mM Tris-HCl pH 7.6, 120 mM NaCl, 5 mM KCl, 1 mM MgCl2, 1 mM CaCl2, RT (ca. 27 C); ELISA: 2", "settings": "protein: recombinant; tags: His (pET100/D-TOPO)"}, "[3]": {"molecular_target": "PR-LBD (UniProt P06401 675-933)", "sequence (P06401 675-933)": "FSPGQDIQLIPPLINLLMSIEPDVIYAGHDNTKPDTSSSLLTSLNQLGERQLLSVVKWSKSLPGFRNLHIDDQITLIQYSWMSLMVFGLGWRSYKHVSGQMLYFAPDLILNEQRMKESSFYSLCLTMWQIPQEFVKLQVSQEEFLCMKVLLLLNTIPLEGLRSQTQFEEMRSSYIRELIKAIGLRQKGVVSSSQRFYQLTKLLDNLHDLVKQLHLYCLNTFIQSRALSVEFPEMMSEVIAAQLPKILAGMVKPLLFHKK", "assay": "aptamer ELISA; negligible binding; ITC: 10 mM Tris-HCl pH 8.0, 25 C; aptamer binding buffer (SELEX): 20 mM Tris-HCl pH 7.6, 120 mM NaCl, 5 mM KCl, 1 mM MgCl2, 1 mM CaCl2, RT (ca. 27 C); ELISA: 2", "settings": "protein: commercial; tags: GST"}}}
{"binder": "B1", "values": [{"measurement": "binding signal", "setting": "[1]", "value": "78.5 % of anti-ERα antibody signal"}, {"measurement": "binding result", "setting": "[2]", "value": "no binding"}, {"measurement": "binding result", "setting": "[3]", "value": "no binding"}]}
{"binder": "B2", "values": [{"measurement": "binding signal", "setting": "[1]; label: biotin", "value": "47.3 % of anti-ERα antibody signal"}]}
{"binder": "B3", "values": [{"measurement": "binding signal", "setting": "[1]; label: biotin", "value": "50.5 % of anti-ERα antibody signal"}]}
